Test results taken from patent US20200199241A1 (Chugai, published 2020).
Positions count from the first letter of the chain named. Names and notes keep the numbering of the source. Read-outs that look alike come from different tables or passages of the source.

Assays:
mouse FcγRIV [1] = target: T1, mouse FcγRIV (mouse, UniProt A0A0B4J1G0 21-203); assay: SPR (Biacore T100/T200): FcγR injected over the antibody held by mouse FcRn immobilised on a CM4 chip (simultaneous binding), pH 7.4, 25 C
T1 construct: bought; also called mFcgRIV; mFcgR IV; the vendor's purification tag not given
T1 sequence: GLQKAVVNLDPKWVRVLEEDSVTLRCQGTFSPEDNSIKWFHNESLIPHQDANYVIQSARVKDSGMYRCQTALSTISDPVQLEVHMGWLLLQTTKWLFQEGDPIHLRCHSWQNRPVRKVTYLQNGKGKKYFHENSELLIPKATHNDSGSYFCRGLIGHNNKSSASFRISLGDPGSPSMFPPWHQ

mouse FcγRIII [2] = target: T2, mouse FcγRIII (mouse, UniProt P08508 31-215); assay: as above
T2 construct: bought; also called mFcgRIII; mFcgR III
T2 sequence (looked up): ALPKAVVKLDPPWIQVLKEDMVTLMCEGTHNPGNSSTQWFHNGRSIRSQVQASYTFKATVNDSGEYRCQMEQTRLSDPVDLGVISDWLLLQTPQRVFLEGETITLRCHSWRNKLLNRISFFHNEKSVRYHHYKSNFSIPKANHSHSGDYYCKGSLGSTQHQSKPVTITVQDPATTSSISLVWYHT

mouse FcγRI = target: T3, mouse FcγRI (mouse, UniProt P26151 25-297); assay: as above
T3 construct: bought; also called mFcgRI; mFcgR 1
T3 sequence (looked up): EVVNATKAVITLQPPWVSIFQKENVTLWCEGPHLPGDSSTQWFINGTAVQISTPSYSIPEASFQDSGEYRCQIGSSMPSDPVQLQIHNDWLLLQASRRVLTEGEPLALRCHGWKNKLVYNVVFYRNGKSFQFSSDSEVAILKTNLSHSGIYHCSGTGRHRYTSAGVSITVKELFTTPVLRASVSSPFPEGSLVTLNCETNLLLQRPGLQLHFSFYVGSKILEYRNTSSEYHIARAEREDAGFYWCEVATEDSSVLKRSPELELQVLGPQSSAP

mouse FcγRIIb [3] = target: T4, mouse FcγRIIb (mouse, UniProt P08101 30-207, limits assumed); assay: as above
T4 construct: bought; also called mFcgRIIb; mFcgR IIb
T4 sequence (looked up): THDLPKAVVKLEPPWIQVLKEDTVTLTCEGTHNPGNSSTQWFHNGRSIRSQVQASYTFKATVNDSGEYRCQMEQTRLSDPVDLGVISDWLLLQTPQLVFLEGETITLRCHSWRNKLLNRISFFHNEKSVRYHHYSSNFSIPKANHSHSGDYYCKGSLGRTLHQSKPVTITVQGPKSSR

[4] = target: T5, human FcRn (soluble human FcRn complexed with β2-microglobulin) (human, UniProt P61769 21-119, limits assumed); assay: SPR, antibody captured by Protein L, human FcRn as analyte, pH 7.0, 25 C
T5 construct: also called hFcRn

[5] = target: T5, human FcRn (soluble human FcRn …); assay: as above; remark: listed apart in the source
mouse FcγRIV [6] = target: T1, mouse FcγRIV; assay: SPR, antibody captured by Protein L, mouse FcγR as analyte, pH 7.4, 25 C; parameters: unit not given here
mouse FcγRIII [7] = target: T2, mouse FcγRIII; assay: as above; parameters: unit not given here
mouse FcγRIIb [8] = target: T4, mouse FcγRIIb; assay: as above; parameters: unit not given here
human FcγRIIa(R) = target: T6, human FcγRIIa(R) (human, UniProt P12318 36-217); assay: SPR, antibody captured by Protein L, human FcγR as analyte, pH 7.4, 25 C;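 further: biacore T100 or T200 with Protein L amine-coupled on a CM4 chip, FcγRs diluted in ACES saline with polysorbate 20, buffer-only injection as blank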
T6 construct: also called hFcgRIIa(R); FcγRIIa type R
T6 chain: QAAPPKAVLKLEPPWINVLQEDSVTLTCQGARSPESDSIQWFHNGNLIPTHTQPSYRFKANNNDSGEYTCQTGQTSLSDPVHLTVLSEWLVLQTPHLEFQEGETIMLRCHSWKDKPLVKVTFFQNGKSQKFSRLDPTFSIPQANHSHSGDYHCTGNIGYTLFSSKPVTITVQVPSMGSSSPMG

human FcγRIa = target: T7, human FcγRIa (human, UniProt P12314 16-292, limits assumed); assay: as above
T7 construct: also called hFcgRIa; hFcgRI

human FcγRIIa(H) = target: T8, human FcγRIIa(H) (human, UniProt P12318 36-217); assay: as above
T8 construct: also called hFcgRIIa(H); FcγRIIa type H
T8 sequence: T6 chain with R133H

human FcγRIIIa(V) = target: T9, human FcγRIIIa(V) (human, UniProt P08637 17-208, limits assumed); assay: as above
T9 construct: also called hFcgRIIIa(V); allotype V158

FcγRIIb [9] = target: T10, FcγRIIb (human, UniProt P31994 43-217, limits assumed); assay: ratio of SPR KDs; reference IL6R-B3/IL6R-L
T10 construct: SPR analyte; also called FcγIIB; CD32
T10 sequence: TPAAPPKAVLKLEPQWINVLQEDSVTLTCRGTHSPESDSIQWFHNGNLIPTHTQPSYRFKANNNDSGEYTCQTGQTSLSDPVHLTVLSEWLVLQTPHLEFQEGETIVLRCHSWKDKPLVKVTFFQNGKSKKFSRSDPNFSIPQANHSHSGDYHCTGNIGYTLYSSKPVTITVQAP

FcγRIIb [10] = target: T10, FcγRIIb; assay: ratio of SPR KDs: KD for FcγRIIaH over KD for FcγRIIb
FcγRIIa type R = target: T11, FcγRIIa type R (human, UniProt P12318 36-217); assay: SPR (Biacore), antibody captured, FcγR analyte
T11 construct: SPR analyte; also called FcγRIIaR; FcγRIIa(R)
T11 chain: T6 chain

FcγRIIIa type V = target: T12, FcγRIIIa type V (human, UniProt P08637 17-208, limits assumed); assay: SPR (Biacore), antibody captured, FcγR analyte
T12 construct: SPR analyte; allotype V158 was used here; also called FcγRIIIaV; FcγRIIIa(V)

FcγRIIa type H [11] = target: T13, FcγRIIa type H (human, UniProt P12318 36-217); assay: SPR (Biacore), antibody captured, FcγR analyte
T13 construct: SPR analyte; also called FcγRIIaH
T13 sequence: T6 chain with R133H

FcγRIa = target: T14, FcγRIa (human, UniProt P12314 16-292, limits assumed); assay: SPR (Biacore), antibody captured, FcγR analyte
T14 construct: SPR analyte; also called CD64

FcγRIIb [12] = target: T10, FcγRIIb; assay: SPR (Biacore), antibody captured, FcγR analyte
FcγRIIb [13] = target: T10, FcγRIIb; assay: ratio of SPR KDs: KD for FcγRIIaR over KD for FcγRIIb
FcγRIIa type H [14] = target: T13, FcγRIIa type H; assay: ratio of SPR KDs; stronger receptor here FcγRIIaH; reference IL6R-B3/IL6R-L (FcγRIIaH)

T5 sequence (chain, as listed by the source limits assumed, chain 1 of 2): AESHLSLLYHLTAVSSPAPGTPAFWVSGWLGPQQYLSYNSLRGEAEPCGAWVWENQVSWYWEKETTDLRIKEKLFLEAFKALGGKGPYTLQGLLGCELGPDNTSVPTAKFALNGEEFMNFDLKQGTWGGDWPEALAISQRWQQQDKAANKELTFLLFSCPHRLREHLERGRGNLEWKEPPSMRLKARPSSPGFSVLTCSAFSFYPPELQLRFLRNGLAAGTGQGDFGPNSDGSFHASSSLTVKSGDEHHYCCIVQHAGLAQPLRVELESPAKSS
T5 sequence (P61769 21-119 limits assumed, chain 2 of 2): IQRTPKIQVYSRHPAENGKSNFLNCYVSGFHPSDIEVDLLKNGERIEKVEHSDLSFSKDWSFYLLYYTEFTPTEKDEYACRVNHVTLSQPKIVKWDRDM
T12 sequence (P08637 other isoform, or with tags, fused parts or gaps limits assumed): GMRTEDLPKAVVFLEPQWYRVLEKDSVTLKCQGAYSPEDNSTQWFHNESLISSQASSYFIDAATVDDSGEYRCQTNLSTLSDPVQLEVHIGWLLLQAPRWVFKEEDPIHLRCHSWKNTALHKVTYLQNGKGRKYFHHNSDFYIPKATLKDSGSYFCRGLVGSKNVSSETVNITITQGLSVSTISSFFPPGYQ
T14 sequence (P12314 16-292 limits assumed): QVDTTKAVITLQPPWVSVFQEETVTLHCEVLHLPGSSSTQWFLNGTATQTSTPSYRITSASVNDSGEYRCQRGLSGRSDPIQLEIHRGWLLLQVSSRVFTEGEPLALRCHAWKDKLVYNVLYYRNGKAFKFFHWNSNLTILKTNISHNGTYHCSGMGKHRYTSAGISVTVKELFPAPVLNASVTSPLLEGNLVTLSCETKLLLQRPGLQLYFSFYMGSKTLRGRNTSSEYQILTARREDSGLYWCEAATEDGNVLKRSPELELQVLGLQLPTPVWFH
T9 sequence (P08637 other isoform, or with tags, fused parts or gaps limits assumed): as the sequence (P08637 other isoform, or with tags, fused parts or gaps limits assumed) above
T7 sequence (P12314 16-292 limits assumed): as the sequence (P12314 16-292 limits assumed) above

B1: Fv4-IgG1-F20 (VH3-IgG1-F20 and VL3-CK) (antibody)
heavy: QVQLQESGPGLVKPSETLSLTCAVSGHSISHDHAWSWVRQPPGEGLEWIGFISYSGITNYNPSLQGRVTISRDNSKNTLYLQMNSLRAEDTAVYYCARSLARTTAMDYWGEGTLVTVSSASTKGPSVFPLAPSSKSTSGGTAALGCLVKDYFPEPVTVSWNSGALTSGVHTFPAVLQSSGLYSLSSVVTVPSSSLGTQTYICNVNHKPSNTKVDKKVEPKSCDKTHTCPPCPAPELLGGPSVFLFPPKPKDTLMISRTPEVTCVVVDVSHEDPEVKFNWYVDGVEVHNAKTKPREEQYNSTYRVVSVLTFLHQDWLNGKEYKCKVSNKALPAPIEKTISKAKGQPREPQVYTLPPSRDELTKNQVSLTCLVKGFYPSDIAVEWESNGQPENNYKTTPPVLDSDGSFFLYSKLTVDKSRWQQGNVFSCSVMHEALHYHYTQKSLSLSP
light: DIQMTQSPSSLSASVGDSVTITCQASTDISSHLNWYQQKPGKAPELLIYYGSHLLSGVPSRFSGSGSGTDFTFTISSLEAEDAATYYCGQGNRLPYTFGQGTKVEIERTVAAPSVFIFPPSDEQLKSGTASVVCLLNNFYPREAKVQWKVDNALQSGNSQESVTEQDSKDSTYSLSSTLTLSKADYEKHKVYACEVTHQGLSSPVTKSFNRGEC
notes: copies: 2 + 2
Q: What does the source list for B1?
A: binding result (mouse FcγRIV [1]): binds; binding result (mouse FcγRIII [2]): binds; binding result (mouse FcγRI): binds; binding result (mouse FcγRIIb [3]): binds

B2: antibody with VH3-IgG1-F1326 heavy chain and L(WT)-CK light chain (antibody)
heavy: QVQLQESGPGLVKPSETLSLTCAVSGHSISHDHAWSWVRQPPGEGLEWIGFISYSGITNYNPSLQGRVTISRDNSKNTLYLQMNSLRAEDTAVYYCARSLARTTAMDYWGEGTLVTVSSASTKGPSVFPLAPSSKSTSGGTAALGCLVKDYFPEPVTVSWNSGALTSGVHTFPAVLQSSGLYSLSSVVTVPSSSLGTQTYICNVNHKPSNTKVDKKVEPKSCDKTHTCPPCPAPEAAGGPSVFLFPPKPKDVLYISRTPEVTCVVVDVSHEDPEVKFNWYVDGVEVHNAKTKPREEQYNSTYRVVSVLQPLHADWLNGKEYKCKVSNKALPAPIEKTISKAKGQPREPQVYTLPPSRDELTKNQVSLTCLVKGFYPSDIAVEWESNGQPENNYKTTPPVLDSDGSFFLYSKLTVDKSRWQQGNVFSCSVMHEALHYHVTQKSLSLSP
light: not shown
notes: L234A/L235A/T250V/M252Y/T307Q/V308P/Q311A/N434Y/Y436V; copies: 2 + 2
Q: Which results are given for B2?
A: Kd [4]: 11 nM; Kd [5]: 11 nM; binding amount (mouse FcγRIV [6]): 85.6; binding amount (mouse FcγRIII [7]): 532; binding amount (mouse FcγRIIb [8]): 19.2; BINDING AMOUNT (RU) (human FcγRIIa(R)): 11.7 RU; BINDING AMOUNT (RU) (human FcγRIa): 265 RU; BINDING AMOUNT (RU) (human FcγRIIa(H)): 11.4 RU; BINDING AMOUNT (RU) (human FcγRIIIa(V)): 61.6 RU

B3: IL6R-B3/IL6R-L (antibody, human IgG1)
heavy: not shown
light: DIQMTQSPSSLSASVGDRVTITCRASQDISSYLNWYQQKPGKAPKLLIYYTSRLHSGVPSRFSGSGSGTDFTFTISSLQPEDIATYYCQQGNTLPYTFGQGTKVEIK
notes: IL6R-G1d with K439E (EU numbering); also called parent polypeptide
Q: Which results are given for B3?
A: KD(IIb) of the parent polypeptide/KD(IIb) of altered polypeptide (FcγRIIb [9]): 1; KD(IIaH)/KD(IIb) (FcγRIIb [10]): 0.2; Kd (FcγRIIa type R): 1100 nM; Kd (FcγRIIIa type V): 330 nM; Kd (FcγRIIa type H [11]): 770 nM; Kd (FcγRIa): 0.42 nM; Kd (FcγRIIb [12]): 3100 nM; KD(IIaR)/KD(IIb) (FcγRIIb [13]): 0.3; KD of the stronger of FcγRIIaR/FcγRIIaH binding of the variant / that of the parent polypeptide (FcγRIIa type H [14]): 1

B4: IL6R-G1d/IL6R-L (antibody, human IgG1)
heavy: not shown
light: B3 light
notes: Anti-human IL-6 receptor antibody with the G1d constant region; also called IgG1 (IL6R-G1d)
Q: What does the source list for B4?
A: KD(IIb) of the parent polypeptide/KD(IIb) of altered polypeptide (FcγRIIb [9]): 1.2; KD(IIaH)/KD(IIb) (FcγRIIb [10]): 0.3; Kd (FcγRIIa type R): 1000 nM; Kd (FcγRIIIa type V): 350 nM; Kd (FcγRIIa type H [11]): 670 nM; Kd (FcγRIa): 0.32 nM; Kd (FcγRIIb [12]): 2600 nM; KD(IIaR)/KD(IIb) (FcγRIIb [13]): 0.4; KD of the stronger of FcγRIIaR/FcγRIIaH binding of the variant / that of the parent polypeptide (FcγRIIa type H [14]): 0.9
